Reference: article PMC4384738

Target: WISp39 (UniProt Q9UIM3)
Test: anti-GFP co-IP, Western blot
Conditions: reference: wild type; sites S2

Substance: Coronin 1B (from UniProt Q9BR76) S2A
- binding against the reference: lost
